B1: Plasmodium falciparum cell-traversal protein for ookinetes and sporozoites (PfCelTOS), amino acids 25-182 (domain or fragment)
chain: FRGNNGHNSSSSLYNGSQFIEQLNNSFTSAFLESQSMNKIGDDLAETISNELVSVLQKNSPTFLESSFDIKSEVKKHAKSMLKELIKVGLPSFENLVAENVKPPKVDPATYGIIVPVLTSLFNKVETAVGAKVSDEIWNYNSPDVSESEESLSDDFFD
notes: CelTOS of Plasmodium falciparum, UniProtKB Q8I5P1, amino acids 25-182, codon-optimized gene; No cleavage of the hexahistidine tag is described; the same preparation is detected with an anti-His antibody in the lipid strip assay, so the tag was probably kept; also called Antigen 2; source: E. coli, purified (Nickel-NTA chromatography, gel filtration on Superdex 200)

Experiments:
[1] = target: Plasmodium vivax cell-traversal protein for ookinetes and sporozoites (PvCelTOS), amino acids 36-196 (Plasmodium vivax); assay: AUC; sedimentation equilibrium, 10°C, 150 mM NaCl, 10 mM HEPES pH 7.4, 12,000 and 15,000 rpm; PfCelTOS at 25, 36 and 46 µM, PvCelTOS at 29, 41 and 53 µM; single component model
[2] = target: the molecule itself; assay: as above

Molecule	stoichiometry N [1]	stoichiometry N [2]
Plasmodium vivax cell-traversal protein for ookinetes and sporozoites (PvCelTOS), amino acids 36-196 (domain or fragment)	2	–
B1	–	2
